Test results reported in the supplement of paper PMC9732359.
± gives the uncertainty stated by the source.

Assay: protein stability index of a GFP-peptide fusion (yeast GPS) (PSI 1-4); higher = more stable; sorted into four equal gates, so the index is relative within each strain
In short: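 Plasmids in a pooled yeast library fused tiled 17-residue yeast protein peptides downstream of GFP and also expressed Cherry. Mid-log cultures grown without leucine were sorted into four equal gates by GFP/Cherry fluorescence ratio. Each gate's plasmids were PCR-amplified and Illumina-sequenced, and reads were matched to strains by barcodes. The protein stability index is derived by multiplying each gate's read frequency by its gate number and summing the results.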

Sequence	protein stability index (doa10∆)	protein stability index (pdr5∆)	protein stability index (san1∆)	protein stability index (ubr1∆)
KPMAFSNTTTHVPEKKS [MTR3]	1.46 ± 0.053	2.04 ± 0.052	2.32 ± 0.082	1.62 ± 0.034
VDINRLKKGEVSLGTSI [PRE3]	2.21 ± 0.098	1.55 ± 0.063	2.11 ± 0.081	1.33 ± 0.06
TVEALDFREKALYIAMM [RET1]	2.73 ± 0.1	3.03 ± 0.096	3.29 ± 0.076	2.59 ± 0.082
FMLSDDEGMESIEMEEE [RRI2]	2.59 ± 0.22	3.78 ± 0.29	3.38 ± 0.097	
VNIHHLLNEYRPHQSRE [MED7]	2.81 ± 0.084	2.4 ± 0.16	1.81 ± 0.2	2.25 ± 0.1
LHKRLHGVSFKKRAPRA [RPL31A]	2.9 ± 0.12	2.73 ± 0.13	3 ± 0.16	3.17 ± 0.11
FIYDTEKNGGLGWDLDA [FAS2]	3.21 ± 0.088	2.96 ± 0.12	3.31 ± 0.051	2.52 ± 0.054
VKIGDIEKWTANLLPAR [RPS22A]	2.19 ± 0.076	2.65 ± 0.095	2.56 ± 0.076	3.17 ± 0.087
RIFAIAFTRKQANQVKR [RPS1A]	1.59 ± 0.018	1.66 ± 0.019	1.99 ± 0.031	1.98 ± 0.02
DTFLPPPPPPPSNFEIN [PRP8]	2.6 ± 0.039	2.57 ± 0.039	2.34 ± 0.04	2.33 ± 0.032
IVQIDATPFRQWFEAHY [RPS8A]	2.425 ± 0.022	2.797 ± 0.025	2.626 ± 0.023	2.697 ± 0.019
LNCCGSVARVEDHDVHS [IRR1]	1.98 ± 0.079	2.49 ± 0.065	2.41 ± 0.068	2.45 ± 0.06
MFFIKDLSLNITLHPSF [RPB7]		1.97 ± 0.16		2.24 ± 0.26
IEQCKHPLHELIIQYPP [ISW2]	3.19 ± 0.1	2.82 ± 0.094	2.59 ± 0.1	3.1 ± 0.068
SHHLKADTIDHDELIDS [YGL172W/NUP49]	3.03 ± 0.063	3.25 ± 0.046	3.08 ± 0.042	3.08 ± 0.038
SAKQTAPNNSNGGSEEE [MED7]	3.45 ± 0.27			
WNLNATKPNVLNDPSLK [SIN4]	3 ± 0.088	2.94 ± 0.071	3 ± 0.054	3.26 ± 0.04
KISNSEFFNPEIFHLLQ [SIN4]	2.13 ± 0.079	1.74 ± 0.072	1.61 ± 0.087	2.16 ± 0.07
NNTVDPGFDEFQLIDMK [CSI1]	3.18 ± 0.064	3.12 ± 0.062	3.31 ± 0.038	3.21 ± 0.041
KLRARLVEYGFDPSRIK [SMC2]	2.73 ± 0.06	2.62 ± 0.092	2.33 ± 0.08	2.01 ± 0.034

Sequence	protein stability index (doa10∆)	protein stability index (pdr5∆)	protein stability index (san1∆)	protein stability index (ubr1∆)
TTDMISVLYQLSTSAFM [YML031W/NDC1]	1.42 ± 0.095	1.64 ± 0.14	1.75 ± 0.24	1.14 ± 0.11
SMTATADVLAMAKVEVN [RIP1]	1.99 ± 0.12	2.4 ± 0.11	2.43 ± 0.15	2 ± 0.074
SSEFVSQDTKVICSVTG [RRP46]	2.67 ± 0.054	2.37 ± 0.056	2.43 ± 0.076	2.58 ± 0.059
AHLAEIQLNGGSISEKV [RPL3]				2.86 ± 0.12
FNVDDVLKFTFTGEKPI [MED8]	3.16 ± 0.094	3.02 ± 0.097	3.29 ± 0.048	2.98 ± 0.068
FIENFLTNDTFEKKLSI [YML103C/NUP188]	3.18 ± 0.22	3.12 ± 0.12	3.2 ± 0.18	3 ± 0.093
TGRLFQVEYALEAIKQG [PRE5]	2.94 ± 0.11	2.5 ± 0.15	3.16 ± 0.17	2.26 ± 0.12
VEDTLHVNKRKRVSGTS [YOR098C/NUP1]	1.42 ± 0.078	1.92 ± 0.13	1.73 ± 0.15	1.52 ± 0.077
PTGGKAKLSEGTSFRRK [RPS27A]	3.4 ± 0.081	3.33 ± 0.11	3.33 ± 0.065	3.33 ± 0.059
PEGTLSGGSRNTSESLL [SMC2]	3.4 ± 0.2	3.29 ± 0.15	3.44 ± 0.13	3.28 ± 0.25
IGSQRGRRLSMLASQAN [DSN1]	1.75 ± 0.057	2.47 ± 0.068	1.88 ± 0.096	2.18 ± 0.047
LSFINPKTGKVERSEAI [SEC65]	3.6 ± 0.17	3.47 ± 0.081	3.33 ± 0.14	3.22 ± 0.073
DIPFFPSSEKPNIRTMS [SSN2]			3.1 ± 0.22	
PGKGILTTAREHHSSVK [FAS2]	3.07 ± 0.087	3.32 ± 0.076	3.17 ± 0.049	3.11 ± 0.067
NIATQQNMQQSLQQMQH [GAL11]	2.75 ± 0.076	2.92 ± 0.091	2.68 ± 0.17	2.86 ± 0.069
DEDKFKKLKPIVAKYDP [PRP28]	2.78 ± 0.077	2.9 ± 0.088	2.9 ± 0.094	1.98 ± 0.059
PLVYRHELITNIGETAG [RPB9]	2.78 ± 0.046	2.88 ± 0.035	3.04 ± 0.042	3.02 ± 0.036
SPPPQTHQSPPPPPQQS [SNF5]	2.87 ± 0.034	2.72 ± 0.029	2.75 ± 0.032	2.74 ± 0.03
LVLDLLTWLSSFSVCKI [IRR1]	2.21 ± 0.06	1.59 ± 0.05	1.65 ± 0.073	1.71 ± 0.039
